Test results: patent US20070134720A1 (published 2007)
Values belong to the binder of their own block, whether it stands above or below them. No end group written: not given here.

Experiments:
[1] = biological target: T1, GST protein (UniProt P08515 1-218 = GST); assay: GST pulldown, SDS-PAGE and autoradiography
T1 construct: Control in the pulldown; also called control GST protein
Method: A [³⁵S]-labeled Flag-P4HA1 fused protein was prepared using the TNT-coupled Translation System (Promega Corporation) and pcDNA3-Flag-P4HA1. The fused protein was added, together with GST-Syno dTM, GST-Syno RING and GST protein, to a binding buffer containing 20 mM HEPES (pH 7.9), 100 mM NaCl, 1 mM EDTA, 0.05% Tween, 5% glycerol, 1 mM DTT, 0.2 mM NaVO₄, 5 mM NaF, and 1 mM PMSF and reacted at 4° C. for 16 hours. The resulting reaction product was developed over SDS-PAGE and its radioactivity was detected with an image analyzer (BAS2000, Fujix). The binding of GST-Syno dTM and GST-Syno RING fusion protein with [³⁵S]-labeled pcDNA3-Flag-P4HA1 was observed. In contrast, no binding was found between the control GST protein and pcDNA3-Flag-P4HA1 (FIG. 2).

[2] = biological target: T2, GST-fused P4HA1 protein (whole region of P4HA1) (human, UniProt P13674 18-534); assay: HTRF competition: 60 ng MBP-synoviolin-His and 10 ng GST-P4HA1, XL665-labeled anti-His and Eu(K)-labeled anti-GST antibodies
T2 construct: Made in E. coli; also called GST-P4HA1; GST-fused P4HA1 protein beads; not shown: GST (glutathione S-transferase) fusion partner of vector pGEX 4T-1
Method: A standard reaction mixture comprising 60 ng MBP-synoviolin-His, 10 ng GST-P4HA1, 1 mM DTT, 1 mM EDTA, 50 mM NaCl, 0.1% BSA, 0.3% DMSO, and a test compound in 15 μL of 50 mM HEPES (pH 7.5) solution was prepared using a 384-well plate. The reaction was initiated by adding 5 μL of a 50 mM HEPES solution comprising GST-P4HA1. After a 30 minute reaction at room temperature, 5 μL of a 50 mM HEPES solution comprising an Eu(K)-labeled anti-GST antibody (20000 B counts, CIS bio international), a XL665-labeled anti-His antibody (0.025 μg, CIS bio international), and 1 M K was added. The mixture was left to stand overnight at room temperature, and the fluorescence was measured using RUBYstar™.

T1 sequence (P08515 whole entry): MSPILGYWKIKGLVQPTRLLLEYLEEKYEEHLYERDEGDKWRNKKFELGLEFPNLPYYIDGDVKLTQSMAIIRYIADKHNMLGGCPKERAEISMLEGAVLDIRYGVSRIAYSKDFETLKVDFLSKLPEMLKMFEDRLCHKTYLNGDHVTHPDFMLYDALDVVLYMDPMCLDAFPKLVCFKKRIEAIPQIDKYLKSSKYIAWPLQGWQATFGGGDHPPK

binding result [1]: no binding
B1: [35S]-labeled Flag-P4HA1 fused protein (enzyme)
chain: HPGFFTSIGQMTDLIHTEKDLVTSLKDYIKAEEDKLEQIKKWAEKLDRLTSTATKDPEGFVGHPVNAFKLMKRLNTEWSELENLVLKDMSDGFISNLTIQRQYFPNDEDQVGAAKALLRLQDTYNLDTDTISKGNLPGVKHKSFLTAEDCFELGKVAYTEADYYHTELWMEQALRQLDEGEISTIDKVSVLDYLSYAVYQQGDLDKALLLTKKLLELDPEHQRANGNLKYFEYIMAKEKDVNKSASDDQSDQKTTPKKKGVAVDYLPERQKYEMLCRGEGIKMTPRRQKKLFCRYHDGNRNPKFILAPAKQEDEWDKPRIIRFHDIISDAEIEIVKDLAKPRLSRATVHDPETGKLTTAQYRVSKSAWLSGYENPVVSRINMRIQDLTGLDVSTAEELQVANYGVGGQYEPHFDFARKDEPDAFKELGTGNRIATWLFYMSDVSAGGATVFPEVGASVWPKKGTAVFWYNLFASGEGDYSTRHAACPVLVGNKWVSNKWLHERGQEFRRPCTLSELE
modifications: 35S label from in vitro translation (the FIG. 2 legend prints 32P)
notes: Made with the TNT-coupled Translation System from pcDNA3-Flag-P4HA1; also called pcDNA3-Flag-P4HA1; [32P]-labeled Flag-P4HA1 fused protein; not shown: Flag tag

IC50 [2]: 167 µg/mL
B2: partial peptide of the partially modified synoviolin (SEQ ID NO: 5) (peptide)
peptide: DNVCIICREEMVTGAKRLDCN
modifications: cysteine pairing not given here; also: partially modified, modification not given here
